The record followed here is doi:10.1101/2022.05.21.492554 (2022).

Assay [1] has as its target T1, BA.4/5 RBD with BAP-His tag, biotinylated (SARS-CoV-2 Omicron BA.4/5, L452R | F486V | T478K | E484A | N501Y, biotin (on the BAP tag, by co-expressed ER-localized biotin ligase BirA)). Description: SPR. The conditions noted are these: both partners purified.
For assay [2], the target named is T1, BA.4/5 RBD with BAP-His tag, …. Briefly: cell-based or functional assay.

B1: Omi-32 Fab (Fab, V domains shown)
VH: EVQLVESGGGVVQPGRSLRLSCAASGFTFSNYGMHWVRQAPGKGLEWVAVYWYDGGNKFYADSVKGRFTISRDNSKNTLYLQMNSLRVEDTAVYYCARDTAPPDYWGQGTLVTVSS
VL: AIRMTQSPGTLSLSPGERATLSCRASQSISSSFLAWYQQKPGQAPRLLIYGASSRATGIPDRFSGSGSGTDFTLTISRLEPEDFAVYYCQQYGTSPRLTFGGGTKVDIK
As to B1, in assay [1], the “fold increase in on-rate against BA.2 RBD” value was 5 fold. The “pseudoviral neutralization of BA.4/5, fold enhancement compared to BA.2” value in assay [2] came out at 77 fold.
